B1: CALM iso3 487-…-501 L490A; L494A; L497A; L501A (peptide)
chain: SDDADSSAANAVGNA
B2: CALM iso3 487-…-501 D488A; D489A; D491A (peptide)
chain: SAALASSLANLVGNL
B3: CALM iso3 487-…-501 D488A; D489A; L490A; D491A; L494A; L497A; L501A (peptide)
chain: SAAAASSAANAVGNA
B4: AP180 Site 2 peptide 882-…-896 D885A; L887A; D889A; L890A; I892A; D894A; F895A; L896A (peptide)
chain: PAKAPAAAANAKAAA
B5: CALM iso3 C-terminus peptide 596-…-610 I607A; F609A; M610A (peptide)
chain: PNPFGPVSGAQAQAA
B6: CALM iso3 490-…-504 D491A (peptide)
chain: LASSLANLVGNLGIG
B7: CALM iso3 490-…-504 L490A; D491A; L494A; L497A; L501A; I503A (peptide)
chain: AASSAANAVGNAGAG
B8: CALM iso3 490-…-504 L490A; L494A; L497A; L501A; I503A (peptide)
chain: ADSSAANAVGNAGAG
B9: AP180 Site 2 peptide 882-…-896 L887A; L890A; I892A; F895A; L896A (peptide)
chain: PAKDPAADANAKDAA
B10: AP180 Site 2 peptide 882-…-896 D885A; D889A; D894A (peptide)
chain: PAKAPLAALNIKAFL

The binders below were run against clathrin purified from bovine brain, P49951 (assay: peptide array overlay assay). Conditions: chain shown with the change, n = 1, parent: est. 0.15, read off a plot.
Chain of clathrin purified from bovine brain, P49951 (P49951 2-1675, chain 1 of 3): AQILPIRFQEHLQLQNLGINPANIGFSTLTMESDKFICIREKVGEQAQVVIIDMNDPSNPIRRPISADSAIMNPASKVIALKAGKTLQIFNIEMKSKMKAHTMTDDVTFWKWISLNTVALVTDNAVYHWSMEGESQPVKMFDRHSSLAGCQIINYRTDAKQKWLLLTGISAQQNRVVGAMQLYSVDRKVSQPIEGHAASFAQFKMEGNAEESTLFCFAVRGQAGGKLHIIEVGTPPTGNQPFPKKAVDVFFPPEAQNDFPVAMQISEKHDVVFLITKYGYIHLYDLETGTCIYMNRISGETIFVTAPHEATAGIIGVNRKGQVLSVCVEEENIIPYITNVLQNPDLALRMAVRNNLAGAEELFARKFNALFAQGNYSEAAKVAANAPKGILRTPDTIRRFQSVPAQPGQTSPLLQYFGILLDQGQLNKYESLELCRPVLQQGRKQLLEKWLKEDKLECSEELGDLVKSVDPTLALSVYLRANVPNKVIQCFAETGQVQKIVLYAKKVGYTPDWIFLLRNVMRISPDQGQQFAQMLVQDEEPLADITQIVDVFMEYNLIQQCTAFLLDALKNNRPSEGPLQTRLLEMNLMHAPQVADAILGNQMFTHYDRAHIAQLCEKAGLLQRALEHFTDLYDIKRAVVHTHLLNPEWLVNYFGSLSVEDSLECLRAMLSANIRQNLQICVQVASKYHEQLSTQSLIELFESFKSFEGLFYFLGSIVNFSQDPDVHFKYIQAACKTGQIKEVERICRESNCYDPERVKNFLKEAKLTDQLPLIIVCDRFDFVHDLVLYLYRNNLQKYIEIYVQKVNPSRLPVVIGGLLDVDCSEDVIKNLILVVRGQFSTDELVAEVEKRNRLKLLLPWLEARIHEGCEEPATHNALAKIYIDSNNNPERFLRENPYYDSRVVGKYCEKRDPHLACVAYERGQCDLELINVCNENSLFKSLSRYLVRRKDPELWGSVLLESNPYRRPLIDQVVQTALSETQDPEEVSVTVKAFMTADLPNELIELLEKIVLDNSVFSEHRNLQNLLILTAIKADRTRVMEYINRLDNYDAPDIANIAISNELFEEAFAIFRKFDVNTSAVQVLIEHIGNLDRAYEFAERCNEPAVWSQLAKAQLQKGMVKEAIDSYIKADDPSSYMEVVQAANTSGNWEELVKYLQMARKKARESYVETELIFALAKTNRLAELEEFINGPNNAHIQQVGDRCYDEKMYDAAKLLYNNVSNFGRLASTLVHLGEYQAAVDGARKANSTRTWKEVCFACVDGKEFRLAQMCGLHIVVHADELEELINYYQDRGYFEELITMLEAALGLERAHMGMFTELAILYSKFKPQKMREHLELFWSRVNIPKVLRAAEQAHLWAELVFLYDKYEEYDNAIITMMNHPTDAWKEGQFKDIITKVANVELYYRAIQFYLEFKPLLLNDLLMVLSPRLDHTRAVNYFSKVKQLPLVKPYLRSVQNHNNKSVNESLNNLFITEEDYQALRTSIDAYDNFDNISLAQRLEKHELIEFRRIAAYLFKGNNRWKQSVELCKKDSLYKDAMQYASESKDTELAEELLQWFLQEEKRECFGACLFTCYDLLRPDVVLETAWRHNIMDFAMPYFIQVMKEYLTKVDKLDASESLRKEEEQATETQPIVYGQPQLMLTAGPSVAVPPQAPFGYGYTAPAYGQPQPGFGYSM
Chain of clathrin purified from bovine brain, P49951 (chain, as listed by the source, chain 2 of 3): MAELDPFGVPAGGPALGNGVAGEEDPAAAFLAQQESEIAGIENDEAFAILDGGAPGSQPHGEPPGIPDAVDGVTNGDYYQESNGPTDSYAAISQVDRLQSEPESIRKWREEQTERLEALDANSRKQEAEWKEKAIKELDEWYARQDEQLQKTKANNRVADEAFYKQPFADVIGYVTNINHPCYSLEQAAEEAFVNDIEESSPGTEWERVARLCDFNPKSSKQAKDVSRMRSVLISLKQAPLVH
Chain of clathrin purified from bovine brain, P49951 (chain, as listed by the source, chain 3 of 3): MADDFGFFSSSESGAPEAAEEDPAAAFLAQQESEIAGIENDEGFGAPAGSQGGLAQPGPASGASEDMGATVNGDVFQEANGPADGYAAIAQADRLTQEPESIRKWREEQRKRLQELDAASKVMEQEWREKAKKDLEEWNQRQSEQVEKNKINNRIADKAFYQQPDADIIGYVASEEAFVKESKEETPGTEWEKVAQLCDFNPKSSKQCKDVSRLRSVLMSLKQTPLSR

Row | Binder | other: relative clathrin binding (intensity divided by that of 15mer E)
1 | B1 | 0
2 | B2 | 0.35
3 | B3 | 0

Same assay, conditions: chain shown with the change, n = 1, parent: est. 1.0, read off a plot

Row | Binder | ratio to parent
4 | B4 | 0
5 | B5 | 0
6 | B6 | 1
7 | B7 | 0
8 | B8 | 0
9 | B9 | 0
10 | B10 | 0.12

— publication PMC5004861
